From US20220340649A1 (SENELIX, published 2022)
Numbering of substitutions follows the chain as printed.

What was measured:
[1] = target: T1, human YKL-40 (chitinase-3-like protein 1) (human, UniProt P36222 22-383); assay: ELISA, purified IgG on antigen
T1 construct: Antigen protein immobilized in ELISA and on the Octet AR2G sensor; also called hYKL-40; human YKL-40 antigen

[2] = target: T2, mouse YKL-40 (mouse, UniProt Q61362 30-389); assay: Octet BLI, antigen immobilized on AR2G sensor
T2 construct: Antigen protein immobilized in ELISA and on the Octet AR2G sensor; also called mYKL-40; mouse YKL-40 antigen
T2 sequence (Q61362 30-389): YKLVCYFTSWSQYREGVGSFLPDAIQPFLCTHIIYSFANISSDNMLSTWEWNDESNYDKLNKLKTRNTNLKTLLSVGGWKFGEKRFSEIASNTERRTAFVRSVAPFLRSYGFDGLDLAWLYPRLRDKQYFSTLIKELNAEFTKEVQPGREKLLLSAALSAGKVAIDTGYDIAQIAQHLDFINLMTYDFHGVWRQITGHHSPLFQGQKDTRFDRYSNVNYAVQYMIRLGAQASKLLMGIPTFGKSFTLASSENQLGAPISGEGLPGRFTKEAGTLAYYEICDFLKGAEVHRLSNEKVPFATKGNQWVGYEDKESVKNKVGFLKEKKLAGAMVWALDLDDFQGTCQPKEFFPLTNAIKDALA
Procedure: (§1) To reconfirm the EC₅₀ value measured by ELISA, the affinity for 4E3-F2 (M3) and 3A10-F1 (H1) was measured using an Octet instrument. Cross-binding was investigated for the two antibodies using hYKL-40 and mYKL-40. Each antigen protein was immobilized using the AR2G (Amine Reactive 2nd Generation) sensor, and the direct immobilization method of binding each antibody with different concentrations (0-1 μM) was employed.

[3] = target: T1, human YKL-40 (chitinase-3-like protein …); assay: ELISA, IgG titrated on hYKL-40, A450nm normalized
[4] = target: T1, human YKL-40 (chitinase-3-like protein …); assay: Octet BLI, antigen immobilized on AR2G sensor, antibody 0-1 µM; hYKL-40 on the sensor
Procedure: as §1

[5] = target: T1, human YKL-40 (chitinase-3-like protein …); assay: ELISA, Fab protein titrated on hYKL-40 antigen, A450nm normalized
[6] = target: T2, mouse YKL-40; assay: ELISA, purified IgG on antigen
[7] = target: T2, mouse YKL-40; assay: Octet BLI, antigen immobilized on AR2G sensor, antibody 0-1 µM; mYKL-40 on the sensor
Procedure: as §1

[8] = target: T2, mouse YKL-40; assay: ELISA, Fab protein titrated on mYKL-40 antigen, A450nm normalized

T1 sequence (P36222 22-383 limits assumed): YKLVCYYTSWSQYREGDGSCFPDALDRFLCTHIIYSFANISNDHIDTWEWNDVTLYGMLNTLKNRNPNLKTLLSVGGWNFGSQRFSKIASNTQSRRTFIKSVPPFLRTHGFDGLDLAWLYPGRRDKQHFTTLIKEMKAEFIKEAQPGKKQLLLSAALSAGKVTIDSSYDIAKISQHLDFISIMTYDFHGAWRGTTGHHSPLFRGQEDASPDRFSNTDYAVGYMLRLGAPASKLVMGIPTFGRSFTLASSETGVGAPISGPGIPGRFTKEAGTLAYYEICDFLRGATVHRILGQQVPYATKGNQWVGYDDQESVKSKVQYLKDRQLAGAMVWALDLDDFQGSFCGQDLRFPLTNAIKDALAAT

B1: 3A10-F1 (H1) human IgG antibody (antibody, V domains shown)
VH: EVQLVESGGGLVQPGGSLRLSCAASGFTFSNYAMSWVRQAPGKGLEWVSGISGSGGTTYYADSVKGRFTISRDNSKNTLYLQMNSLRAEDTAVYYCAGVGTFDVWGQGTLVTVSS
VL: DIQMTQSPSSLSASVGDRVTITCRASQTISSWLNWYQQKPGKAPKLLIYAASRLQSGVPSRFSGSGSGTDFTLTISSLQPEDFATYYCQQSYSTPLTFGQGTKVEIK
notes: The phage clone was converted to human IgG and produced in Expi293 cells; also called human YKL-40 antibody 3A10-F1 (H1)
[1]
  EC50: 0.582 nM
[2]
  binding result: no binding (tested: 0-1 µM)
[3]
  EC50: 0.5 nM
[4]
  Kd: 0.05 nM

B2: 3A10-F1 (H1) Fab (Fab, V domains shown)
VH: B1 VH
VL: B1 VL
notes: Fab from the Fab-I phage library; also called Fab protein of 3A10-F1 (H1)
[5]
  EC50: 0.74 nM

B3: 4E3-F2 (M3) human IgG antibody (antibody, V domains shown)
VH: QVQLVQSGAEVKKPGSSVKVSCKASGGTFSSYDIHWVRQAPGQGLEWMGIISPYLGITIYAQKFQGRVTITADESTSTAYMELSSLRSEDTAVYYCARRYFYYQSEAFDYWGQGTLVTVSS
VL: B1 VL with T28S, S31N, W32Y, R53T, T94F
notes: The phage clone was converted to human IgG and produced in Expi293 cells; also called mouse YKL-40 antibody 4E3-F2 (M3)
[6]
  EC50: 0.067 nM
[4]
  Kd: 57 nM
[7]
  Kd: 67 nM

B4: 4E3-F2 (M3) Fab (Fab, V domains shown)
VH: B3 VH
VL: B1 VL with T28S, S31N, W32Y, R53T, T94F
notes: Fab from the Fab-II phage library; also called Fab protein of 4E3-F2 (M3)
[5]
  EC50: 23.6 nM
[8]
  EC50: 4.3 nM
